Source: patent US20250043290A1, “RNA SEQUENCES THAT INDUCE FLUORESCENCE OF SMALL MOLECULE FLUOROPHORES, MOLECULAR COMPLEXES, SENSORS, AND METHODS OF USE THEREOF” (CORNELL UNIVERSITY, priority 2021, published 2025)

Legend:
[1] = Dissociation constant of RNA-fluorophore complex, titration with DFHBI-1T; type: binding; conditions: 50 nM RNA, one-site saturation model
Experimental: FIGS. 7A-7H provide photophysical and biophysical characterization of Squash. […] Excess RNA was used to ensure binding of nearly all fluorophore. […] Data represent mean values±s.d. for n=3 independent experiments. […] The fluorescence signal trace was fitted with a monoexponential curve to extract kobs. kobs was plotted as a function of total RNA (50 nM RNA) and fluorophore concentration. kon and koff were extracted as the slope and intercept, respectively. Squash koff (0.014±0.008 s^−1) is very similar to that of Corn (0.018±0.002 s^−1). kon for Squash-DFHO (162300±8100 M^−1 s^−1) is seven-times higher than Corn-DFHO (23000±3000 M^−1 s^−1) which could be due to the high folding of Squash. […]
Dissociation constants (Kd) for the RNA-fluorophore complexes were determined as described previously (Paige et al., “RNA Mimics of Green Fluorescent Protein,” Science 333:642-646 (2011) and Filonov et al., “Broccoli: Rapid Selection of an RNA Mimic of Green Fluorescent Protein by Fluorescence-Based Selection and Directed Evolution,” J. Am. Chem. Soc. 136: 16299-16308 (2014), which are hereby incorporated by reference in their entirety). In brief, the RNA aptamer at a fixed concentration (50 nM) was titrated with increasing fluorophore concentration and the resulting increase in fluorescence was recorded. […]

[2] = Fluorescence activation of DFHBI-1T by aptamers in vitro; type: biochemical
Description: FIG. 1A is a schematic illustrating the strategy for evolution of the add A-riboswitch aptamer. Indicated are helices P1-P3, junctional strands (J1/2, J2/3, J3/1), kissing loop (gray lines), and adenine interactions with the aptamer (dotted line) (5′-CUUCAUAUAAUCCUAAUGAUAUGGUUUGGGAGUUUCUACCAAGAGCCUUAAACUCUUGAUUAUGAAG-3′ (SEQ ID NO:36)). The chemical structure of adenine and fluorophores are shown. Three regions (Region 1: 5′-UAU AAU-3′ (SEQ ID NO:37)), Region 2: 5′-AGU UUC UAC C-3′ (SEQ ID NO:38); Region 3: 5′-GAU UAU-3′ SEQ ID NO:39), which include J1/2, J2/3, and J3/1 were randomized in both size and sequence resulting in a sprouts/clips library for SELEX. Each nucleotide in the colored regions was replaced using a combination of random stochastic deletion (designated “N”) and random stochastic insertion (designated “n”). FIG. 1B is schematic showing a three dimensional structure of the add A-riboswitch aptamer highlighting the adenine-binding pocket (PDB 1Y26). The mutagenized regions are shown in the same color as FIG. 1A. Adenine is indicated by the arrow. FIG. 1C is a schematic illustrating the evolution of the add A-riboswitch aptamer into Squash, a DFHBI-1T-binding aptamer. The sprouts/clips library was selected for binding to DFHBI-conjugated agarose resulting in aptamer 9-1. Aptamer 9-1 was subjected to two consecutive rounds of directed evolution generating DE2-6. A pair of mutations was introduced in DE2-6 to strengthen the kissing loop interaction resulting in Squash. FIG. 1D is a graph showing fluorescence activation of DFHBI-1T by different aptamer intermediates that led to Squash. The values inside the bars indicate fold-activation of DFHBI-1T fluorescence by the corresponding aptamer. Data represent mean values±s.d. for n=3 independent experiments. […]
FIG. 6A is a bar graph showing fluorescence activation of DFHO by Squash and its precursors. Fluorescence was measured with 200 nM dye and 10 μM RNA (ex: 495 nm, em: 562 nm, except for Corn; ex: 505 nm, em: 545 nm). […] FIG. 6B is a bar graph showing fluorescence of initial hits after Round 7 of SELEX. In vitro transcribed RNAs from each hit (1 μM final) were mixed with DFHBI-1T (10 μM final) and the fluorescence was measured (ex: 452 nm, em: 503 nm, except for Broccoli; ex: 472 nm, em: 507 nm). […] FIGS. 6C-6D are bar graphs showing fluorescence measurements of the hits with DFHBI-1T after first (FIG. 6C) and second (FIG. 6D) round of directed evolution, measured as in FIG. 6B. […] FIG. 6E is a bar graph showing fluorescence measurements of hits using DFHO after the second round of directed evolution measured as in FIG. 6A. The fluorescence of the hits were normalized against Corn. […] FIG. 6F is a graph showing normalized fluorescence. […] Fluorescence was measured as in FIG. 6A. […]

B1: Squash: fluorogenic RNA aptamer evolved from the add A-riboswitch aptamer, binds DFHBI-1T and DFHO; SEQ ID NO: 12 (SEQ ID NO: 1) (nucleic acid)
chain: AGGUGAGCCCAAUAAUACGGUUUGGGUUAGGAUAGGAAGUAGAGCCGUAAACUCUCUAAGCG
modifications: RNA, backbone not given here
- Kd [1]: 0.045 µM
- Fold activation of DFHBI-1T fluorescence [2]: 1064 fold
